Laboratory results taken from patent publication US7906119 (Human Genome Sciences, dated 2011).

Target: PA heptamer (Bacillus anthracis, UniProt P13423 197-764)
Experiment: BIAcore; PA heptamer immobilized on CM5 chip, IgG1 in solution

Chain of PA heptamer (P13423 197-764): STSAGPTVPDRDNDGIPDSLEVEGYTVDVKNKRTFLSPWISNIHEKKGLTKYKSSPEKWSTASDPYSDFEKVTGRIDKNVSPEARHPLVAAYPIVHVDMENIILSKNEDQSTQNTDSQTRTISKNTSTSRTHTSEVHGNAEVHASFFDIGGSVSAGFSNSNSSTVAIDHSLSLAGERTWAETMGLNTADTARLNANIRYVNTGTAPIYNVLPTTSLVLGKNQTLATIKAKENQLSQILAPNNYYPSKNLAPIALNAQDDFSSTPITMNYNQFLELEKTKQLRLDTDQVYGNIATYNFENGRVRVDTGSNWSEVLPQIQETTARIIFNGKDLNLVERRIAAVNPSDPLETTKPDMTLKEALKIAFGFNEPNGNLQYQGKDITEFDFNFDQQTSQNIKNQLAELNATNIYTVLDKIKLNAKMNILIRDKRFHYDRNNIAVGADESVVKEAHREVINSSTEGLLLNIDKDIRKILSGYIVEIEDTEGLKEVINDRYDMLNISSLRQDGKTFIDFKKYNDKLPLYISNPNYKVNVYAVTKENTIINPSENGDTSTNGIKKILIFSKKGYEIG

B1: PWD0283 (IgG1 format) (antibody, V domains shown)
VH: EVQLLESGGGLVQPGGSLRLSCAASGFTFSSYATSWVRQAPGKGLEWVSAISGSGGSTYYADSVKGRFTISRDNSKNTLYLQMNSLRAEDTAVYYCARVGGAIRFDSWGRGTLVTVSS
VL: SYELTQPPSASETPGQRVSISCSGGTSNIGSNTINWYQQVPGTAPKLLIYFNNRRPAGVPARFSASKSGTSASLTISGLQSEDEADYYCSAWDDSLSGVVFGGGTKLTVLG
Kd: 0.187 nM
koff: 0.000426 s⁻¹
kon: 2.28e+06 M⁻¹ s⁻¹
